Test results reported in paper PMC7611331 (Nature microbiology, 2019).

Biological target: T1, native FtsZ (Streptococcus pneumoniae R800, UniProt A0A0H2ZNE0 1-419)
T1 sequence (looked up): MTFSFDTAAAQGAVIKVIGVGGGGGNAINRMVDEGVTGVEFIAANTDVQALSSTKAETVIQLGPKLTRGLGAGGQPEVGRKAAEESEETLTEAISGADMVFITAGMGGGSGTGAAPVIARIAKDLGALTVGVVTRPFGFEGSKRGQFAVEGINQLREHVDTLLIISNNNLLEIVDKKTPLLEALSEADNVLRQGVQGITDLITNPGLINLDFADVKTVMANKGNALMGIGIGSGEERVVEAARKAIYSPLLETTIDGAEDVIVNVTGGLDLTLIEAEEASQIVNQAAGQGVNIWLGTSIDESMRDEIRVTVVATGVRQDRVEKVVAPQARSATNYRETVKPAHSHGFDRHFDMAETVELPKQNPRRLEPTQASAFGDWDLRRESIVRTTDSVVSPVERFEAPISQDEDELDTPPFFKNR
Test: MST

B1: RocS-ΔAH-6His (domain or fragment, Streptococcus pneumoniae R800, UniProt Q8DQ15 1-150, looked up)
chain: MSIEMTVSEIAEVLGLSRQAINNRVKELPEEDTDKNDKGVTVVTRSGLIKLEEIYKKTIFEDEPVSEDVKQRELMEILVDEKNAEILRLYEQLKAKDRQLSEKDEQMRIKDRQIAEKDKQLDQQQQLTLQAMKDQENLKLELDQAKEEVQ
modifications: labeled with the red dye NT-647
Does B1 bind?
Result: binds
